# Test results: article PMC7069228, “Targeted cell imaging properties of a deep red luminescent iridium(III) complex conjugated with a c-Myc signal peptide” (Chemical Science, 2020)
# “Also recorded” adds a separate entry of the source.
# Key:
# [1] = Longer term stability in water by UV-vis absorption spectra; format: physicochemical
# Procedure: Our previous studies on Ir(III) complexes have shown that the use of substituted, cyclometalated quinoxaline ligands can impart red luminescence characteristics.[25] Firstly, the UV-vis absorption and emission spectral characteristics of Ir-PYR were determined. […] By inference, ligand-centred transitions are assumed to dominate below 350 nm, with both quinoxaline and bipyridine located π → π* contributing to the spectrum. At 350–450 nm it is likely that spin-allowed metal-to-ligand (5d-to-π*) charge transfers (^1MLCT) are present, with a weaker (ε < 1000 M^–1 cm^–1) shoulder feature at 450–600 nm, which is presumably due to a spin forbidden (S0 → T1) ^3MLCT absorption. […] To assess longer term stability in water, UV-vis absorption spectra of an aqueous solution (stored at 25 °C in light) of Ir-CMYC were recorded at 0, 24, 48 and 72 h (Fig. S4, ESI ^†).
# Human fibroblasts = assay: Resazurin cell viability / metabolic activity assay; format: cell-based
# Procedure: Fig. 3 Ir-PYR is cytotoxic at 20 μM and above. Human fibroblasts were incubated with various concentrations (0 or DMSO only, 5, 20, 50, 80, 100 μM) of either Ir-CMYC (A) or Ir-PYR (B) for 18 hours. Resazurin was added to cells, and after a 4 hour incubation the relative fluorescence intensity was measured (λex = 530 nm; λem = 580 nm). Ir-PYR treated cells (>20 μM) show reduced conversion of resazurin to the fluorescent resorufin indicating reduced cell viability.
# Human derived skin fibroblast cells lines were obtained from the Coriell Cell Repository (GM05399, Camden, NJ). […]
# Human fibroblasts were plated at 10 000 cells per well of a 96-well plate (Cellbind) and treated with the indicated concentrations of Ir-PYR, Ir-CMYC or DMSO. […] After a 4 hour incubation at 37 °C, fluorescence was determined using a Molecular Devices Spectramax Gemini EM plate reader (λex = […]; λem = 585 nm).
# Human fibroblasts were plated at 10 000 cells per well of a 96-well plate and treated with the various concentrations of Ir-PYR, Ir-CMYC (5, 20, 80, 50, 100 μM) or the highest volume of equivalent of DMSO only. […] After a 4 hour incubation at 37 °C, fluorescence was determined using a Molecular Devices Spectramax Gemini EM plate reader (λex = 530 nm; λem = 580 nm).
# human fibroblast cells [2] = assay: Confocal fluorescence microscopy: cell uptake and localisation; format: cell-based; conditions: human fibroblasts
# Procedure: The non-peptide functionalised complex Ir-PYR was investigated at a range of concentrations (1, 5, 20, 50, 80, 100 μM) with respect to cell uptake, localization and bioimaging capability. Human fibroblast cells were incubated with the different concentration solutions of Ir-PYR and imaged after 18 hours using confocal fluorescence microscopy. With long wavelength excitation and emission parameters (λex = 480 nm; λem = 645 nm) compatible with the spectral properties of the complex, it was clearly evident (Fig. 2) that the deep red emission of Ir-PYR was highly amenable to confocal fluorescence microscopy.
# Human derived skin fibroblast cells lines were obtained from the Coriell Cell Repository (GM05399, Camden, NJ). Cells were cultured as monolayers in Dulbecco's modified Eagles medium (DMEM, Sigma, UK) supplemented with 10% fetal bovine serum (FBS, PAN-Biotech, Aidenbach, Germany) and 1% L-glutamine in a humidified incubator with 5% CO2 at 37 °C. For all imaging experiments low passage cells (P10-15) were seeded in 8-well chamber slides (Thistle, IB-80826) at a density of 15 000 cells in 250 μL of media.
# Stock solutions were diluted to the stated concentrations in cell culture medium for incubation with fibroblasts. The equivalent amount of DMSO (<0.5% total volume) was added to controls for comparison. For nuclear visualisation cells were counterstained for 10 minutes with Hoechst 33342 diluted in cell culture media (1 μL mL^–1, Thermo Fisher, UK). For non-live imaging, cells were fixed in cold 4% paraformaldehyde for 10 min at room temperature and rinsed with PBS. For live-cell colocalization studies, cells were incubated with Ir-PYR for 12 hours prior to counterstaining with Hoechst 33342, and either LysoTracker-green DND-26 (L7528, Thermo Fisher, UK), or CYTO-ID Autophagy detection kit 2.0 (175–0050, Enzo Life Sciences, UK), as per the manufacturer's instructions. Briefly, LysoTracker was diluted in cell culture media to a final concentration of 200 nM and left for 15 min at 37 °C. […]
# fish sperm DNA = assay: Circular dichroism / UV-vis titration with fish sperm DNA (multiple independent binding sites model); conditions: Table S1; buffer 25 mM MOPS, 50 mM NaCl, 1 mM EDTA, 25 °C; n restricted to 3 base pairs
# Procedure: In view of the nuclear localisation of Ir-CMYC, we also considered the potential role that affinity to DNA may play. To explore DNA binding of these Ir(III) complexes, UV-vis and circular dichroism titrations were carried out in buffer (25 mM MOPS, 50 mM NaCl, 1 mM EDTA) at 25 °C (Fig. S6, ESI ^†). To quantify the affinity of Ir-PYR for fish sperm DNA, titration curves at 400 and 493 nm were extracted from the circular dichroism data (Fig. 6). Similarly, for Ir-CMYC, titration curves at 373 and 493 nm were extracted from the circular dichroism data. The binding data were analysed globally (Table S1 ^†) in terms of the multiple independent binding sites model, explicitly taking into account the dilution of the iridium complex during the titration.[28] […]
# MOPS buffer was prepared by dissolving MOPS (3-(N-morpholino)propanesulfonic acid, CAS[1132-61-2]), NaCl, and EDTA (ethylenediaminetetraacetic acid disodium salt dihydrate, CAS[6381-92-6]) (all obtained from Fisher and used as supplied) in deionised water (Elga Purelab Flex), adjusting the pH to 7.0 using a NaOH solution (pH of the buffer was determined using a Hanna Instruments pH210 microprocessor pH meter with a VWR simple junction universal combined pH/reference electrode) and making up the solution to 0.5 litre. […]
# human fibroblast cells [3] = assay: Immunocytochemistry with cell membrane permeabilisation (retention of red emission); format: cell-based; conditions: fluorescence microscopy imaging
# Source text: To investigate whether the NLS was cleaved off Ir-CMYC prior to translocation to the nucleus, an immunoassay was trialled using an antibody raised against c-Myc.
# [4] = Freeze-thaw stability of DMSO stock solutions; format: physicochemical; conditions: 10 mM stock in DMSO stored at –20 °C
sequence,measurement,setting,value
"PAAKRVKLD [Ir-CMYC, NLS peptide … functionalised at N-terminus with cyclometalated iridium(III) quinoxaline/bipyridine complex]","UV-vis absorption spectra at 0, 24, 48 and 72 h (chemical stability in water)","[1]; aqueous solution stored at 25 °C in light, read-out UV-vis absorption",superimposable
same,solubility in water,"[1]; inferred from superimposable UV-vis spectra of aqueous solution over 72 h, 25 °C",excellent solubility
same,cytotoxicity,"Human fibroblasts; 5–100 μM, 18 h incubation, resazurin",No cytotoxicity was observed; also recorded: essentially non-toxic
same,toxicity: changes in cellular morphology or mitochondrial activity,"Human fibroblasts; 24 hours after incubation, resazurin cell death assay",no (or minimal) toxicity
same,uptake / staining at 1–5 μM,"human fibroblast cells [2]; 1–5 μM, 18 h, confocal microscopy",No uptake or staining
same,concentration giving good cell uptake and nuclear localisation,"human fibroblast cells [2]; 18–24 h incubation, confocal, co-localisation with Hoechst 33342, n = 2",80 to 100 µM
same,staining at 20–50 μM,"human fibroblast cells [2]; 20–50 μM, 18 h, confocal microscopy",weak punctate staining
same,"K (fitted equilibrium constant, binding to FS DNA)",fish sperm DNA,4.5 ± 1.0 103 M-1
same,red emission in cells after immunocytochemistry procedure which permeabilises the cell membrane,human fibroblast cells [3],no longer evident
same,effect of 3 freeze–thaw cycles on compound signal,[4],did not appear to reduce the compound signal
